According to US6642368B1, “Programmed cell death and caspase-12” (The General Hospital Corporation, priority 1998, dated 2003):

Columns and labels:
[1] = target: T1, caspase-12Δ (Gly95-Asn419 of caspase-12L, with an artificial initiation codon), [35S]-labeled
T1 chain: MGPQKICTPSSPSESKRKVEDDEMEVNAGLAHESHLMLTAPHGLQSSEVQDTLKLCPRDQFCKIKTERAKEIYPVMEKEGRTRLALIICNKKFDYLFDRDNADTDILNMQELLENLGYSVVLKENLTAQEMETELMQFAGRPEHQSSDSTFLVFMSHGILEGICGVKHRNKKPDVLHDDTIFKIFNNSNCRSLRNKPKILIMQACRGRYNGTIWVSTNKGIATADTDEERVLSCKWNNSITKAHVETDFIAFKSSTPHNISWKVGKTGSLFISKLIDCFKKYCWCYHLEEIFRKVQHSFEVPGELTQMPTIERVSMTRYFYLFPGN

[2] = target: poly(ADP-ribose) polymerase
[3] = target: pro-ICE ([35S]-labeled)
Chain of pro-ICE ([35S]-labeled) (P29466 whole entry): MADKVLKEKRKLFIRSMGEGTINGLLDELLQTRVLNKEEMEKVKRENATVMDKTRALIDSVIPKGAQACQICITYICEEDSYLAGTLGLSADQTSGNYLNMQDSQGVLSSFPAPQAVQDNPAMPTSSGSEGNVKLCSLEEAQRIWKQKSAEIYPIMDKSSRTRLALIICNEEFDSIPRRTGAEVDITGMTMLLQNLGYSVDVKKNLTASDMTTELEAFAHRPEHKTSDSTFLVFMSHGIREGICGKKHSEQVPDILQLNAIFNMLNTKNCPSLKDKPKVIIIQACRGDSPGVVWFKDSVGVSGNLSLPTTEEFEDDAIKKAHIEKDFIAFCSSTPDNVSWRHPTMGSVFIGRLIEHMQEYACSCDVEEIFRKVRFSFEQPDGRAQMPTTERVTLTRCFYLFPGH

[4] = target: pro-IL-1β
Chain of pro-IL-1β (P01584 whole entry): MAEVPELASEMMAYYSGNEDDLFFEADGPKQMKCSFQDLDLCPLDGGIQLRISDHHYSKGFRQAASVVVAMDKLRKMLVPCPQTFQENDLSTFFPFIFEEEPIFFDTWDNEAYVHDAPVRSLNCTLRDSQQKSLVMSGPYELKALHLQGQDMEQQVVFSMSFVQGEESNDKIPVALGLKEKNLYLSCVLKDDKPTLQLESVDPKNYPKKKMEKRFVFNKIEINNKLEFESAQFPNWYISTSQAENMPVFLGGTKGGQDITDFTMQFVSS

[5] = target: T2, pro-caspase-12 (caspase-12L, full-length precursor, 419 residues, 48 kDa)
T2 chain: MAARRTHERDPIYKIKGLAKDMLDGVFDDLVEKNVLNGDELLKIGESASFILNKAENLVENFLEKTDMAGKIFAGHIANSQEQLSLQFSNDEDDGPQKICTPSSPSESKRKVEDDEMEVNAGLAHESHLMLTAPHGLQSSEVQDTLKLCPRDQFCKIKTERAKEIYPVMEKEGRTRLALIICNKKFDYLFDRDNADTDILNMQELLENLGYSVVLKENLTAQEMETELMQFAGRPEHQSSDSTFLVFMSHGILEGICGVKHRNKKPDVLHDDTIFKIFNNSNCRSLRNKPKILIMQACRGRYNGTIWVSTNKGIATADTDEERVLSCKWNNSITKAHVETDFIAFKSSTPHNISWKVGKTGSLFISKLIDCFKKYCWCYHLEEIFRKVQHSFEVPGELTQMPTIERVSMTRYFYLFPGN

[6] = target: T3, pro-caspase-2 ([35S]-labeled)
T3 sequence (P42575 2-452, species assumed, looked up): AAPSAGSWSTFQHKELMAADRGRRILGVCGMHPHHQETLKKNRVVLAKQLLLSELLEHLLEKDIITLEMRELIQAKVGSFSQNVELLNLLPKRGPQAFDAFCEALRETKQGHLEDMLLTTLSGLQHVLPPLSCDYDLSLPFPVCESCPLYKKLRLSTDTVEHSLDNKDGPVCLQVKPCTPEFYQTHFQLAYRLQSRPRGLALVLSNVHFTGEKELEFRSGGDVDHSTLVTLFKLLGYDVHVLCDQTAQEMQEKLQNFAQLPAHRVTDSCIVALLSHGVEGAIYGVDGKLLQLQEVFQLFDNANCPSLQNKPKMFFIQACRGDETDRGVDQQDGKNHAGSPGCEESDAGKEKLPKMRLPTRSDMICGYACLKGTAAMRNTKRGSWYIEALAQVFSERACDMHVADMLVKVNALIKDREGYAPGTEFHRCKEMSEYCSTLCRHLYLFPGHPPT

[7] = target: T4, pro-caspase-3 ([35S]-labeled)
T4 sequence (P42574 1-277, species assumed, looked up): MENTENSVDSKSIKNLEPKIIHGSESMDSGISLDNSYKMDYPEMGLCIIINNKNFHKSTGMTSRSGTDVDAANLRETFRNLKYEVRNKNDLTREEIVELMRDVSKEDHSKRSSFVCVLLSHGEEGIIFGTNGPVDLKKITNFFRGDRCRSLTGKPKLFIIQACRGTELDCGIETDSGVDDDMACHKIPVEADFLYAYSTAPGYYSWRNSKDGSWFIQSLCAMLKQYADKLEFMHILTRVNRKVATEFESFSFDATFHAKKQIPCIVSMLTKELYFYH

[8] = target: T5, caspase-12 (Mus musculus, UniProt O08736); test: Suppression of cell-killing activity of caspase-12 by baculovirus p35; type: cell-based; settings: unpublished data
T5 sequence (O08736 1-419): T2 chain

[9] = test system: Rat-1 cells; test: Cell death induced by transient overexpression of lacZ fusion constructs, X-gal staining; type: cell-based; settings: lacZ fusion construct, 24 hr after transfection
Excerpt: (§1) FIGS. 4A-4C. Cell death induced by overexpression of caspase-12. […] The round cells expressing the casp-12L-lacZ fusion proteins show condensed and fragmented nuclei. […] The data shown are the percentage of round blue cells among total number of blue cells counted. In each transfection, over 200 blue cells were randomly chosen and counted. The data of Rat-1 cells collected from at least three independent experiments. The constructs used were: casp-12L-lacZ, casp-12S-lacZ, casp-12Δ-lacZ, ICE-lacZ, lacZ. Rat embryonic fibroblast cells (REF) were also transfected with either casp-12L-lacZ or lacZ.
To examine if expression of caspase-12 induces apoptosis, a transient expression system was used to overexpress caspase-12 in mammalian cells. […] Transfected cells are easily detected by staining with X-gal because of the β-galactosidase activity of lacZ. Expression constructs of casp-12L and casp-12S fused with lacZ gene in pcDNA3 vector, which contains the cytomegalovirus (CMV) promoter, were generated. These expression constructs were introduced into Rat-1 cells by transfection, and the expression of the genes were examined 24 hr after transfection using X-gal reaction.
(§2) Rat-1, rat embryonic fibroblast cells, NG108-15, HeLa and COS-1 were maintained in culture at 37° C. with 5% CO2 in Dulbecco's modified Eagle's medium containing 10% (v/v) fetal bovine serum (BioWhittaker) and 50 units/ml penicillin and 50 μg/ml streptomycin (Sigma). The day before transfection, cells were seeded at a density of 1.3×10^4 cells/cm^2. Expression constructs were transferred to cells with either calcium phosphate or lipofectamine (GIBCO BRL) as previously described (Miura, M., et al., Cell 75:653-660 (1993); Kumar, S., et al., Genes and Development 8:1613-1626 (1994); Wang, L., et al., Cell 78:739-750 (1994)). The expression of chimeric genes in cells was detected by staining of cells with 5-bromo-4-chloro-3-indolyl β-D-galactoside (X-gal) as previously described (Miura, M., et al., Cell 75:653-660 (1993); Kumar, S., et al., Genes and Development 8:1613-1626 (1994); Wang, L., et al., Cell 78:739-750 (1994)). Immunostaining of transfected cells was done as previously described using mouse monoclonal anti-lacZ antibody (Miura, M., et al., Cell 75:653-660 (1993); Kumar, S., et al., Genes and Development 8:1613-1626 (1994); Wang, L., et al., Cell 78:739-750 (1994)).

[10] = test system: rat embryonic fibroblast cells; test: as above; type: cell-based; settings: primary rat embryonic fibroblasts, FIG. 4C
Excerpt: as §1
Rat-1, rat embryonic fibroblast cells, NG108-15, HeLa and COS-1 were maintained in culture at 37° C. with 5% CO2 in Dulbecco's modified Eagle's medium containing 10% (v/v) fetal bovine serum (BioWhittaker) and 50 units/ml penicillin and 50 μg/ml streptomycin (Sigma). The day before transfection, cells were seeded at a density of 1.3×10^4 cells/cm^2. […] The expression of chimeric genes in cells was detected by staining of cells with 5-bromo-4-chloro-3-indolyl β-D-galactoside (X-gal) as previously described (Miura, M., et al., Cell 75:653-660 (1993); Kumar, S., et al., Genes and Development 8:1613-1626 (1994); Wang, L., et al., Cell 78:739-750 (1994)). […]

[11] = test system: Rat-1/bcl-2; test: Effect of cell death suppressor bcl-2 on caspase-12 killing activity; type: cell-based; settings: casp-12L-lacZ in Rat-1/bcl-2 stable transfectant
Method: FIGS. 5A-5B. Effect of cell death suppressors on the killing activity of caspase-12. […] Cell death was assayed as described in FIG. 4C. […] The data from transfection of the parental cell line, Rat-1 (FIG. 4C), are included in the figures for comparison. The lacZ construct was also used for transfection as a control.
To determine if expression of bcl-2 and crmA can inhibit apoptosis induced by casp-12 overexpression, casp-12L-lacZ fusion construct was transfected into stable cell lines of Rat-1 that overexpresses either bcl-2 or crmA (Miura, M., et al., Cell 75:653-660 (1993)). Cell death was assayed as described above (Example 3). […] The magnitude of the bcl-2 suppression against toxicity of casp-12 overexpression was about 10% (60% for Rat-1, 50% for Rat-1/bcl-2) which is much smaller than that observed for ICE and casp-2 (FIG. 5A; Wang, L., et al., Cell 78:739-750 (1994)).

[12] = test system: HeLa; test: Cell type specificity of cell killing, lacZ fusion transfection; type: cell-based; settings: FIG. 6
Method: (§3) FIG. 6. The cell type specificity of caspase-12-induced cell killing activity. NG108-15, HeLa and COS-1 cells were transfected with casp-12L-lacZ, casp-12S-LacZ, lacZ or ICE-lacZ. Staining of transfectants were done and the data are presented as in FIG. 4C.
as §2, with “Immunostaining of transfected cells was done as previously described using mouse monoclonal anti-lacZ antibody (Miura, M., et al., Cell 75:653-660 (1993); Kumar, S., et al., Genes and Development 8:1613-1626 (1994); Wang, L., et al., Cell 78:739-750 (1994)).” left out

[13] = test system: NG108-15; test: as above; type: cell-based; settings: NG108-15, FIG. 6
Method: as §3
as §2, with “Immunostaining of transfected cells was done as previously described using mouse monoclonal anti-lacZ antibody (Miura, M., et al., Cell 75:653-660 (1993); Kumar, S., et al., Genes and Development 8:1613-1626 (1994); Wang, L., et al., Cell 78:739-750 (1994)).” left out

[14] = test system: COS-1 cells; test: as above; type: cell-based, monkey; settings: COS-1, FIG. 6
Method: as §3
as §2, with “Immunostaining of transfected cells was done as previously described using mouse monoclonal anti-lacZ antibody (Miura, M., et al., Cell 75:653-660 (1993); Kumar, S., et al., Genes and Development 8:1613-1626 (1994); Wang, L., et al., Cell 78:739-750 (1994)).” left out

[15] = Protease activity of full-length recombinant caspase-12 from E. coli; type: biochemical; settings: expressed and purified from E. coli

B1: His-tagged caspase-12Δ2 (residues 145-419 of caspase-12L), partially purified from E. coli, autoprocessed into p24 and p10 (protein)
chain 1: TLKLCPRDQFCKIKTERAKEIYPVMEKEGRTRLALIICNKKFDYLFDRDNADTDILNMQELLENLGYSVVLKENLTAQEMETELMQFAGRPEHQSSDSTFLVFMSHGILEGICGVKHRNKKPDVLHDDTIFKIFNNSNCRSLRNKPKILIMQACRGRYNGTIWVSTNKGIATAD
chain 2: TDEERVLSCKWNNSITKAHVETDFIAFKSSTPHNISWKVGKTGSLFISKLIDCFKKYCWCYHLEEIFRKVQHSFEVPGELTQMPTIERVSMTRYFYLFPGN
- in vitro cleavage of [35S]-labeled protein by the partially purified protease [1]: the 38 kDa polypeptide was cleaved into 26 kDa and 13 kDa fragments
- in vitro cleavage by the purified protease [2]: showed little activity for cleavage of pro-IL-1β and poly(ADP-ribose) polymerase
- in vitro cleavage of [35S]-labeled pro-enzyme by the partially purified protease [3]: only faint bands of cleavage products were visible
- in vitro cleavage by the purified protease [4]: showed little activity for cleavage of pro-IL-1β and poly(ADP-ribose) polymerase
- in vitro cleavage of [35S]-labeled pro-enzyme by the partially purified protease [5]: can efficiently process pro-caspase-12 (48 kDa) into fragments
- in vitro cleavage of [35S]-labeled pro-enzyme by the partially purified protease [6]: only faint bands of cleavage products were visible
- in vitro cleavage of [35S]-labeled pro-enzyme by the partially purified protease [7]: only faint bands of cleavage products were visible

B2: baculovirus p35: virus inhibitor for the caspase family (protein, UniProt P08160 1-299, looked up)
Early 35 kDa protein: MCVIFPVEIDVSQTIIRDCQVDKQTRELVYINKIMNTQLTKPVLMMFNISGPIRSVTRKNNNLRDRIKSKVDEQFDQLERDYSDQMDGFHDSIKYFKDEHYSVSCQNGSVLKSKFAKILKSHDYTDKKSIEAYEKYCLPKLVDERNDYYVAVCVLKPGFENGSNQVLSFEYNPIGNKVIVPFAHEINDTGLYEYDVVAYVDSVQFDGEQFEEFVQSLILPSSFKNSEKVLYYNEASKNKSMIYKALEFTTESSWGKSEKYNWKIFCNGFIYDKKSKVLYVKLHNVTSALNKNVILNTIK
- suppression of cell-killing activity of caspase-12 [8]: could not efficiently suppress

B3: caspase-12L: long form of mouse caspase-12, 419 amino acid residues (SEQ ID NO:2); expressed as lacZ fusion (protein)
chain: T2 chain
modifications: lacZ fusion
- percentage of cell death (round blue cells among total blue cells) [9]: about 60%
- percentage of cell death (round blue cells among total blue cells) ([9]; listed as casp-12L-lacZ): 60%
- transfected cells round and small [10]: about 60%
- percentage of cell death [11]: 50%
- apoptosis induced by casp-12L expression [12]: resistant to apoptosis
- apoptosis induced by casp-12L expression [13]: resistant to apoptosis
- apoptosis induced by casp-12L expression [14]: resistant to apoptosis
- processing and protease activity in vitro [15]: without any processing and protease activity
